Experimental data as given in patent EP4803139A2 (Amgen Inc., dated 2026).

Target: T1, PCSK2 (R&D Systems) (UniProt P16519 26-638, limits assumed)
T1 sequence (looked up): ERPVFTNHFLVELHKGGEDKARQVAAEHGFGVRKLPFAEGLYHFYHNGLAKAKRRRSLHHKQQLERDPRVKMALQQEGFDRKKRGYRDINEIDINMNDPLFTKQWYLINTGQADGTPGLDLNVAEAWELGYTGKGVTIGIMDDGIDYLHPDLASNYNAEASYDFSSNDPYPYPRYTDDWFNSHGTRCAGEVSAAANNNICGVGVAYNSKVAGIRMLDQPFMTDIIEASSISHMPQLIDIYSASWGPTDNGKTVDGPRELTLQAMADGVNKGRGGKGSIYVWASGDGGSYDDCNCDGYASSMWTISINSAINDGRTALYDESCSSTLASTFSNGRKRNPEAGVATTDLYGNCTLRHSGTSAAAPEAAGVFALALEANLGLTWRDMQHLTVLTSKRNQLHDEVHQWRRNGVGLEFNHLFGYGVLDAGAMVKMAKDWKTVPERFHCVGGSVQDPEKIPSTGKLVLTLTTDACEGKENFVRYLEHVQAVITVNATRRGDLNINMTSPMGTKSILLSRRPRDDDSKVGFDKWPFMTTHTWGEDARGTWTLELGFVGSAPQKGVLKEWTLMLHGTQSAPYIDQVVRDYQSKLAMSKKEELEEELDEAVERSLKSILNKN
Experiment: competition ELISA: 0.4 µg/mL 11F1 pre-incubated with the convertase in solution, then binding to plate-captured biotinylated PCSK9

B1: 11F1, anti-PCSK9 antibody (antibody, V domains shown)
VH: EVQLVESGGGLVQPGGSLRLSCAASGFTFSNYWMSWVRQAPGKGLEWVASIKQDGSEKYYVDSVKGRFAISRDNAKNSLFLQMNSLRAEDTAVYYCARDLVLMVYDIDYYYYGMDVWGQGTTVTVSS
VL: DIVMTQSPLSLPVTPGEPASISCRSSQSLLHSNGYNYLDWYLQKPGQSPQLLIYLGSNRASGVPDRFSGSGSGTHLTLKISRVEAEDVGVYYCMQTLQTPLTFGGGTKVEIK
binding result: no binding (tested: 0 to 20 µg/mL)
